Reference: the DeepSol protein solubility set

Experiment: soluble on expression in E. coli; label from the status in PepcDB or PDB records

| Sequence | soluble on expression in E. coli |
| --- | --- |
| MSLRKMKRFYIASEEEIKTGKTTDIYFLRTRKILETKNIRKKVLADVTTTSLPENWKWGVLVGVEEVAKLLEGIPVNVYAMPEGTIFHPYEPVLQIEGDYADFGIYETALLGMLSQASGIATAALRIKIAAKFKPVYSFGIRHMHPAIAPMIDRAAFIGGCDGVSGVLGAEMMGEKAVGTMPHALIITVGDQVKAWKYFDEVIEKEVPRIALVDTFYDEKIEAVMAAEALGKKLSAVRLDTPSSRRGNFRRIIEEVKWELKIRGYDWVKILISGGLDEEKIKEIVDVADAFGVGSAIASAKPIDFALDIVEVEGKPIAKRGKLSGRKQVYRCENGHYHVVPADKKLERCPVCNAKVEPLLKPIIENGEIVVEFPKARDIREYVLEQAKKFNLEIEGHHHHHH | not soluble |
| KGLAIAADYRNAYRVGGDYYDFIPSNYDRIRSQDDPKLVQCVPWSIVIGDVMGKGVPAGLIMTMTRGMLRAEVLNRHSPAKILEHLNRVMYADLDNSHRFVTLFYSEYDPKTRTLSYSNAAHHPPLLWRAQTQNIEPLDTQGMLIGLDLDSSYEDAKVVLEVGDIILYYTDGFTDAVNSHGDRFDEENLVRVFQNACQNCQTPEAIVQELFTQVEKFTYPKVRGGDDMTLVVVQVQSEAIESHLCQHHDC | not soluble |
| MSLEKKMEEKKKIKLIATDMDGTLVNDAKEVPASFAPWVLSHPDQQMVIASGRPYYTNEELFKEIKDHLIFIGDNGGLIYQQGQVLAKAGITAEEAKFCLDLFKDEPLANPILCGASQAICHDPKGDRNFLKQLDTYYIKRRYVEDLEAEVNSDEIIKFTVYIEGGAAESIYRQLPEMPGNLSAVLAGPEWIDIVNKDANKGAAVKKIADLKGIKQDEILAFGDYLNDLTMLEAAGTSYAMVNGHPDLKKIADHIAPSNNDEGVMQILRKLFDEGHHHHHH | soluble |
| MRHYKTLRYYETVFAVKPTLSEEEMKKKFEQVKEFIKQKGGEILYEEDWGMRQLAYPIQKFNNARYFLVQFKTENPQLPNELDFQLKIDEDVIRWLNIQIKESEVKKNAQ | soluble |
| MIKIYNRKTKAYDVEQVAGLKYINWSYASPIGKSFLELFIKKKMFSKLYGNFCDSSLSKKKIKAFIDEFNIDMSLCNKNIDEFENFNDFFARTLTPEARPIDYSENILISPGDGRLSAFENIDLDKVVQIKGYTYSLKELIDDPKVAEEFEGGTCLILRLCPTDYHRFHFVDSGTCSESKKISGFYYSVNPIALNNVSELFCKNKREWSIFNSDNFGEILHVEVGATCVGTILQTYSPEKRVKKGEEKGYFKFGGSTTILFFKKDTIKIDSDIVEQTKLGFETKVNMGETIGHKLEHHHHHH | soluble |
| MDNFSLLTTPWLPVRFKDGSTGKLAPVDLADENVVDIAATRADLQGAAWQFLLGLLQCSIAPKRYKNWEDIWFDGLHADVLHKALAPLEHAFQFGAETPSFMQDFEPLSGEKVSIASLLPEIPGAQTTKFNKDHFVKRGVTERFCPHCAALALFSLQLNAPAGGKGYRTGLRGGGPLTTLVELQEYQGERQTPLWRKLWLNVMPQDTADLPLPDQCDATVFPWLAATRTSEQANAVTTPEQVNKLQAYWGMPRRIRLDFATLQSGCCDICGAESDELLGFMTVKNYGVNYDGWRHPLTPYRAPVKDQNAFFSVKPQPGGLIWRDWLGLSQNNQTEANYESPAQVVKVFNARSLTDVKAGIWGFGADFDNMKIRCWYEHHFPLLMTEGLIPDLRKAVQTAARLLSLLRSALKEAWFADAKGARGDFSFIDIDFWNLTQGRFLNLIHDLENGHKPDERLNKWQRELWLFTRHYFDDHVFTNPYESSDLERIMTARKKYFTTSAEKQSAKAAKAKKQEAAE | not soluble |
| MNALTALSPLDGRYASKCDALRPFLSEFGLIHARVTVEVRWLQALSNHAGIIEVAPFSTETNAALDSIVANFSEDDANRIKEIERTTNHDVKAVEYFLKEKIAGLDELKNAGEFIHFACTSEDINNLSHALMLKNGREVLVSSMKQILNAIAALATTHAEQPMLSRTHGQTASPTTLGKEMANVAYRLARQIKQFENVELLGKINGAVGNYNAHLSAYPDIDWAAHSQAFVESLGLTFNPYTTQIEPHDYMAELFDALRRYNTILIDFNRDVWGYISLGYFKQKLKDGEVGSSTMPHKVNPIDFENSEGNLGIANAVLGHLGEKLPVSRWQRDLTDSTVLRNMGVGFAQSLIAFDACLKGIGKLELNAARLAEDLNQAQEVLAEPIQTVMRRYNVEKPYEKLKALTRGQAMTRDMMVNFVNGDELSQVPAEERARLAEMTPASYTGNAADQAKQINDLINKI | not soluble |
| MKLVCISDTHSLHRRIPEIPDGDVLIHAGDSLGQGSLENIEDLNDWLGTLPHRHKIVIAGNHDWAFQEMPGEARTALSNAVYLEDSGVEIEGNRFWGSPWTPTFMDWAFMLERGEPLYQKWQLVPDNTDVLITHGPPKGIGDEANLGFKCQNVGCVDLLARIHQLSLKAHIFGHIHEGYGEYLRGKTRLINASTCTARYEPRNAPIVVDVLEHHHHHH | not soluble |
| MGSDKIHHHHHHLSFIIRKALLTDVAAIVQLERAHVDDELLGSNSQLHAHSFTKSEVSQLINQHWFIVAEEQGVIIGYVMAAKWSFFSAQPLYRHIIQKLKFADLQGQALSTTNTCQYGPVWIQESKRGQGVFSALVTELKKQVADTFPFMVTYVAADNARSLAAHQQKAAMTEIDQFSFEQRDYCLLATTNIT | not soluble |
| MGHHHHHHSHMATGTPESQARFGQSVKGLLTEKVTTCGTDVIALTKQVLKGSRSSELLGQAARNMVLQEDAILHSEDSLRKMAIITTHLQYQQEAIQKNVEQSSDLQDQLNHLLK | not soluble |
| MCTELEPHQRLKKIIDEIGVSQTKLACKYLGRATINKIIRGERPLNAAQAYKFIQRFKDFGYNADIELILGIPTKTIDSTVKKFLSNTKKHYLEFDKLIDKLYKDKAIEVIWNVIEKLDIQDVYKNANIILKYLTKLMQYDLDADIYLKVNIELIKIYTATANYERAITAFNSLKNFSILDRETKVKCFLNVALAYYNLREYKSSIDIASRVMKLKIFDKYYFKASIIKANVLYTDGRINESIKEYEKIAIKAEKYHFIEYVATSESNIGYVFTEQNKFNEAKLHLDEAMKLFDSLNNYYKLNVYDNVFGFKIKNNTADFDTFKKVILLAYDTNDKFRIKNNVKQFVNYAIRNKKSKEIFTKIIDFLNPKGIDLDSSLKLEIMEYVSGNTFESVLKLEHHHHHH | not soluble |
| MRLSFRTLQRRNALGDAPRHRSAQRRAVKTGRRASRTACDAERRTIVERAWHDSLEHHHHHH | not soluble |
| EVQLQESGPGLVKPYQSLSLSCTVTGYSITSDYAWNWIRQFPGNKLEWMGYITYSGTTDYNPSLKSRISITRDTSKNQFFLQLNSVTTEDTATYYCARYYYGYWYFDVWGQGTTLTVSSAKTTAPSVYPLAPVSSVTLGCLVKGYFPEPVTLTWNSGSLSSGVHTFPAVLQSDLYTLSSSVTVTSSTWPSQSITCNVAHPASSTKVDKKIEPR | soluble |
| MFVDRIVLSFRGAGLERANTCLRKGQRLRKACSHVFRPLCSSDLPVNLPTDLETKRVMKPPLAERESIWSYPRPPRVEPNTRHLRVVHNQVTIAETRRGYRVLEYSHPPSYYIPLDDIDLQYVMVSSKVRSTFCEFKGEATYYDVEVGWEVSEGAAWSYDFPTRAYRMLKDHIAFYPAKVDACWVDEYRVRPEPRSFYGGWVTPLVKGVYPEEDVEDDEDSSGGDGKDSATQ | soluble |
| MGHPARMAILSFLAKQESCFFGDIHEELPIAKATVSQHLKELKDAGLIQGEIETPKVRYCINKENWELARKLFAAFLGDCKCTGTSCCG | not soluble |
| GERLSEAEVLSLFDLPLPELAAAAHEVRLKKTDPEVVTFLIDRNINYTNVCTVACAFCAFYRTKRQKDAYTLSYEEIARKVEELYQVGGRRILMQGGVNPELPLVWYLDLLRYLKSRFPDLRIDAFSPEEILGLERLTGLRAEAILEKLKEAGLDGLPGAGAEILVDEVRLKAAPARIRTADWYRIVDAAQALGLYTLATMVIGFGEGPKERTAHLLGLRAQQDRALERYENGFAAFALWTLQVEHTRLKGKAPGATAHEYLKTLAVARLALDNFAHFQASWPTLGFKVAQAALYYGADDFGSTMLEENVVSAAGGHGRTHATVRQIVRHIVDAGFKPAER | not soluble |
| MGSDKIHHHHHHMASLTANIQTQEERKRSLPAQLVVSLVIAMSLWSKDSMRDVLKNLIDGLSEAWLKVGKYWRVACKSAITQARQRLGARVMCKLFHQLVKPMATQETLGAFLQELRIVVIDGSCFDVPDSDENARVFGRPGSRPGTKAAFPKVRLVILVEAGTHIIFDALMWPYRIGERVRALRLLRSVTPGMLLMWDRGLHSYAMVQATVTKGCDYLGRIPANIKFIAEKPLEDGSYLSWIYPSGKLRKKASQPILVRIIEYTIEHPDNPTEQLTYRLITSLLNIEKFPAELLAREYHQRWEVENTIDELKIHLLGRKTHVRSQKPREVVQEVYAWLLGHWTVRLLMFQAATSAGVAPLRLSFTGTLRVIRRAVPKFQRLNSQDLPLFLSG | not soluble |
| MRNTDRKRAQGVSRLDRRDSRMRRVGTYGGRKLIEYDQERWNILAEKRERAKEVMESLLSFGIESVVYGSVARGDVNEKSDVDIFIPEVIPSYKVEVALDGFEVLEKRIVQATPNYAIKGEFVLSDNTTVSFPLVRMREREMDFYRFGGCVDYRGLMEKRRVPGVDKRLVLIIPTGKGHREIPLTDIHPSSVARMLGVSIDIVTERIRVLTRRREVGRTGIFLCETIPSTDCFEQALKEIASRNPAVRRRLD | not soluble |
| MAEHVEIVEMAARDGLQNEKRFVPTADKIALINRLSDCGYARIEATSFVSPKWVPQLADSREVMAGIRRADGVRYSVLVPNMKGYEAAAAAHADEIAVFISASEGFSKANINCTIAESIERLSPVIGAAINDGLAIRGYVSCVVECPYDGPVTPQAVASVTEQLFSLGCHEVSLGDTIGRGTPDTVAAMLDAVLAIAPAHSLAGHYHDTGGRALDNIRVSLEKGLRVFDASVGGLGGSPFAPGAKGNVDTVAVVEMLHEMGFETGLDLDRLRSAGLFTQALRQDKAALEHHHHHH | soluble |
| LSFYHPEDRETVSDAVDAALNDGDPYDLEVRLITARGNHRWVRTRGKRVEGAEKPTVRGFIQDITEQKER | not soluble |
| MVLETTSSRDGEIKLTVDQMLGKLARWIRLMGYDVYYPSGTVPDDEIITKSRSEGRIIITRDYGMYQKYPMSIFEPYDDINDQLRDFIAHFSSRMKDRFMRCPVCNGRLVKLRSKIPEYLRNHRDVYICTGCHKMYWKGSHYRRIYRKIENLRPKGE | soluble |
| MSLIVITGASSGLGAELAKLYDAEGKATYLTGRSESKLSTVTNCLSNNVGYRARDLASHQEVEQLFEQLDSIPSTVVHSAGSGYFGLLQEQDPEQIQTLIENNLSSAINVLRELVKRYKDQPVNVVMIMSTAAQQPKAQESTYCAVKWAVKGLIESVRLELKGKPMKIIAVYPGGMATEFWETSGKSLDTSSFMSAEDAALMIHGALANIGNGYVSDITVNREGHHHHHH | soluble |
| MSLIQGKAIIIGGGPCGLSAAIHLKQIGIDALVIEKGNVVNSIYNYPTHQTFFSSSEKLEIGDVAFITENRKPVRIQALSYYREVVKRKNIRVNAFEMVRKVTKTQNNTFVIETSKETYTTPYCIIATGYYDHPNYMGVPGEDLPKVFHYFKEGHPYFDKDVVVIGGKNSSVDAALELVKSGARVTVLYRGNEYSPSIKPWILPEFEALVRNGTIRMEFGACVEKITENEVVFRSGEKELITIKNDFVFAMTGYHPDHQFLEKIGVEIDKETGRPFFNEETMETNVEGVFIAGVIAAGNNANEIFIENGRFHGGHIAAEIAKRENHEGHHHHHH | soluble |
